Source: patent US20260152555A1 (HUAHUI HEALTH, published 2026)

Tests used:
hCD112R-ECD-mFc WT = target: T1, hCD112R-ECD-mFc WT (human; mouse, UniProt Q6DKI7 42-172); assay: SPR (Biacore T200), multi-cycle; H733-hIgG4 captured on anti-hFc Ab, hCD112R-ECD-mFc WT injected (3.125-100 nM); 1:1 Langmuir [Cont') B]
T1 construct: range 42-172; also called WT hCD112R; wildtype (WT) hCD112R protein; not shown: Fc domain of mouse IgG2a
T1 sequence (looked up): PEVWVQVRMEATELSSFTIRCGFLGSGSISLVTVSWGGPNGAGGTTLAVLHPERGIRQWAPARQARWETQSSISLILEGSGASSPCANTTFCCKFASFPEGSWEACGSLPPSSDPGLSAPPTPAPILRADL
Description: Kinetic analyses of the bindings of WT or mutated hCD112R-ECD-mFc proteins to H733 and hCD112-ECD were performed on a Biacore T200 instrument (Biacore, GE Healthcare). For the single-cycle SPR analysis, anti-mFc Ab (Thermo Fisher) was covalently attached to surfaces of a CM5 sensor chip using an amine coupling kit (GE Healthcare). WT or mutated hCD112R-ECD mFc fusion proteins were captured on the chip and H733-hIgG4 or hCD112-ECD-hFc were then injected. For the multi-cycle SPR analysis, anti-hFc Ab (Thermo Fisher) was covalently attached to surfaces of a CM5 sensor chip using an amine coupling kit (GE Healthcare). H733-hIgG4 or hCD112-ECD-hFc protein was captured on the chip and 2-fold serially diluted WT or mutated hCD112R-ECD-mFc proteins (3.125-100 nM) were then injected. Binding kinetics were evaluated using a 1:1 Langmuir binding model. The association rates (ka), dissociation rates (kd), and affinity constants (KD) were calculated using Biacore T200 evaluation software.

[1] = target: V90A, W100A, or E145A mutation of hCD112R (hCD112R-ECD-mFc variants, as a group); assay: SPR, multi-cycle, H733-hIgG4 captured by anti-hFc Ab, hCD112R-ECD-mFc variants as analytes (3.125-100 nM)

Kd (hCD112R-ECD-mFc WT): 0.333 nM
koff (hCD112R-ECD-mFc WT): 0.000364 s⁻¹
kon (hCD112R-ECD-mFc WT): 1.1e+06 M⁻¹ s⁻¹
fold decrease of binding as compared with WT hCD112R [1]: 4 to 15 fold
B1: H733 (humanized Ab composed of 733-VH-humanV2 and 733-VL-human-C91S) (antibody, human IgG4, V domains shown)
VH: QVQLVQSGAEVKKPGASVKVSCKASGYTFTNYLIEWVRQAPGQGLEWMGVINPGHGFTNYAQKFQGRVTMTRDTSTSTVYMELSSLRSEDTAVYYCARGEWDWYFDVWGQGTTVTVSS
VL: DIQLTQSPSFLSASVGDRVTITCKASQNVGTAVAWYQQKPGKAPKLLIYSTSNRYTGVPSRFSGSGSGTEFTLTISSLQPEDFATYYCQQSSSYPFTFGGGTKVEIK
notes: also called H733-hIgG4; H733 mAb (hIgG4 form)
